Measured values from the supplement of paper PMC7877785.
± gives the uncertainty stated by the source.

Test: self-splicing fitness, log relative to wild type (ln ratio); higher = more splicing; Tetrahymena group I intron in knt gene, E. coli kanamycin selection, DiMSum; sequences stand for … in CUCUCU…GGAGGGAAAAGUUAUCAGGCAUGCACCUGGUAGCUAGUCUUUAAACCAAUAGAUUGCAUCGGUUUAAAAGGCAAGACCGUCAAAUUGCGGGAAAGGGGUCAACAGCCGUUCAGUACCAAGUCUCAGGGGAAACUUUGAGAUGGCCUUGCAAAGGGUAUGGUAAUAAGCUGACGGACAUGGUCCUAACCACGCAGCCAAGUCCUAAGUCAACAGAUCUUCUGUUGAUAUGGAUGCAGUUCACAGACUAAAUGUCGGUCGGGGAAGAUGUAUUCUUCUCAUAAGAUAUAGUCGGACCUCUCCUUAAUGGGAGCUAGCGGAUGAAGUGAUGCAACACUGGAGCCGCUGGGAACUAAUUUGUAUGCGAAAGUAUAUUGAUUAGUUUUGGAGUACUCGUGGUCG
Method in brief: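 Fitness was computed with DiMSum as the error-weighted combination of replicate fold changes, kanamycin versus none, each normalised to wild type. The library randomised all eight intron nucleotides of the P1ex region, with the intron placed in the knt kanamycin-resistance gene on pET-22b(+) in E. coli BL21(DE3). Six replicate transformations were grown overnight at 37°C or 30°C on LB agar with or without 25 μg/mL kanamycin, plus 100 μg/mL carbenicillin, 50 μM IPTG and 0.2% rhamnose. Pooled colonies were amplicon-sequenced on an Illumina HiSeq 2500.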

Sequence	self-splicing fitness (ln) (30 °C)	self-splicing fitness (ln) (37 °C)
CACUAGCAAUAUUACGUCCC	-2.5 ± 0.34	-2.38 ± 0.33
CCACAGCAAUAUUACGAGCG	-0.707 ± 0.048	0.184 ± 0.065
AGCGAGCAAUAUUACGGUAA	-2.45 ± 0.27	-2.49 ± 0.24
UGGUAGCAAUAUUACGCCCU	-0.668 ± 0.16	0.287 ± 0.16
CGAAAGCAAUAUUACGGAAA	-2.9 ± 0.28	-2.49 ± 0.22
UCUAAGCAAUAUUACGAUCG	-1.06 ± 0.099	-0.234 ± 0.1
GGAGAGCAAUAUUACGAGGC	-2.83 ± 0.23	-1.95 ± 0.37
GCACAGCAAUAUUACGCCUC	-0.836 ± 0.065	-0.337 ± 0.074
GCGUAGCAAUAUUACGUACU	-2.08 ± 0.15	-0.552 ± 0.17
GUCGAGCAAUAUUACGGAAA	-2.83 ± 0.23	-2.11 ± 0.22
CUUAAGCAAUAUUACGUCCG	-0.258 ± 0.11	0.679 ± 0.19
UGGCAGCAAUAUUACGGUCA	-2.12 ± 0.18	-1.58 ± 0.15
GGUCAGCAAUAUUACGGGAC	-1.72 ± 0.15	-2.96 ± 0.4
AAGUAGCAAUAUUACGUUUC	-3.93 ± 0.33	-2.03 ± 0.21
UACAAGCAAUAUUACGGUCA	0.157 ± 0.062	0.514 ± 0.072
CAAUAGCAAUAUUACGACGU	-2.06 ± 0.11	-0.956 ± 0.11
CGCAAGCAAUAUUACGGGCU	-1.68 ± 0.12	-0.144 ± 0.16
ACUAAGCAAUAUUACGUAAC	-4.39 ± 0.26	-2.48 ± 0.24
GUAAAGCAAUAUUACGGGUG	-1.6 ± 0.065	-0.848 ± 0.091
CUGCAGCAAUAUUACGAGAG	-1.64 ± 0.12	-2.96 ± 0.22
UAUGAGCAAUAUUACGUCAG	-2.82 ± 0.14	-2.51 ± 0.2
AACGAGCAAUAUUACGGAUC	-2.26 ± 0.19	-2.31 ± 0.17
GGUAAGCAAUAUUACGGUCU	0.187 ± 0.083	-0.0802 ± 0.087
CAAAAGCAAUAUUACGCACA	-1.75 ± 0.1	-0.746 ± 0.11

Sequence	self-splicing fitness (ln) (30 °C)	self-splicing fitness (ln) (37 °C)
CGCGAGCAAUAUUACGUGGA	-2.79 ± 0.16	-3.01 ± 0.34
AUUGAGCAAUAUUACGAUUG	-3.62 ± 0.3	-3.11 ± 0.26
UCGCAGCAAUAUUACGGAGC	-3.54 ± 0.35	-1.89 ± 0.26
UCGUAGCAAUAUUACGAUCA	-0.922 ± 0.19	-0.511 ± 0.17
UGGAAGCAAUAUUACGUUGA	-2.36 ± 0.17	-2.01 ± 0.2
CACUAGCAAUAUUACGGUAG	-1.99 ± 0.1	-0.969 ± 0.094
CCGGAGCAAUAUUACGUAUA	-3.21 ± 0.23	-2.49 ± 0.36
CACCAGCAAUAUUACGCGAC	-4.31 ± 0.2	-2.89 ± 0.23
AGUAAGCAAUAUUACGACCC	-1.01 ± 0.47	-0.157 ± 0.35
AAUUAGCAAUAUUACGUAGG	-2.69 ± 0.12	-1.96 ± 0.18
GUCCAGCAAUAUUACGGAGG	-1.76 ± 0.06	-1.17 ± 0.078
AAUAAGCAAUAUUACGGGGG	-2.91 ± 0.19	-2.75 ± 0.21
AUCGAGCAAUAUUACGCUUU	-2.98 ± 0.15	-2.29 ± 0.18
UUUCAGCAAUAUUACGUACU	-1.49 ± 0.15	-0.647 ± 0.17
ACGAAGCAAUAUUACGCCUU	-2.57 ± 0.14	-0.89 ± 0.13
GUCGAGCAAUAUUACGUAAG	-2.59 ± 0.14	-1.34 ± 0.18
GAGUAGCAAUAUUACGGCCG	-1.24 ± 0.15	-0.0588 ± 0.23
UAGUAGCAAUAUUACGAAUA	-1.33 ± 0.23	-0.977 ± 0.21
UUCGAGCAAUAUUACGUUAU	-2.58 ± 0.2	-2.82 ± 0.38
CCCAAGCAAUAUUACGCCCA	-2.33 ± 0.24	-2.46 ± 0.25
GAGGAGCAAUAUUACGCUGA	-2.84 ± 0.49	-2.07 ± 0.34
GGAUAGCAAUAUUACGUUGC	-4.63 ± 0.36	-2.2 ± 0.28
GGGUAGCAAUAUUACGGACU	-0.272 ± 0.19	0.331 ± 0.24
